Laboratory results taken from the supplement of paper PMC9112550, “Optimization of the antimicrobial peptide Bac7 by deep mutational scanning” (BMC Biology, 2022).

System: Escherichia coli TOP10
Test: shrunken log2 fold change of peptide-encoding DNA abundance (4.5 h post-induction vs induction); higher = less antimicrobial activity (less host growth inhibition)
Settings: time post-induction: 4.5 h; library: site-saturation at positions 5, 18, 19, 20
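Also: peptides expressed intracellularly from a pBAD plasmid library in pooled LB shake-flask culture, induced with 0.3% L-arabinose, DNA abundance read by NGS, three biological replicates, DESeq2 with apeglm shrinkage.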

Sequence	shrunken log2 fold change
RRIRDRPPRLPRPRPRPFQWPRP	-0.156
RRIRARPPRLPRPRPRPFNRPRP	-0.277
RRIRCRPPRLPRPRPRPASYPRP	-0.295
RRIRFRPPRLPRPRPRPSVGPRP	-0.453
RRIRWRPPRLPRPRPRPEEFPRP	0.023
RRIRPRPPRLPRPRPRPDETPRP	-0.088
RRIRLRPPRLPRPRPRPQRYPRP	-0.307
RRIRQRPPRLPRPRPRPTVPPRP	-0.0488
RRIRYRPPRLPRPRPRPLMAPRP	-0.681
RRIRLRPPRLPRPRPRPHYLPRP	-0.278
RRIRPRPPRLPRPRPRPVADPRP	0.295
RRIRGRPPRLPRPRPRPMSQPRP	0.213
RRIRARPPRLPRPRPRPYYKPRP	-0.675
RRIRLRPPRLPRPRPRPEDIPRP	-0.539
RRIRARPPRLPRPRPRPWTIPRP	-0.0653
RRIRDRPPRLPRPRPRPCLQPRP	-0.0105
RRIRMRPPRLPRPRPRPHRGPRP	0.0388
RRIRPRPPRLPRPRPRPTWEPRP	0.659
RRIRARPPRLPRPRPRPHKAPRP	0.102
RRIRTRPPRLPRPRPRPDTAPRP	0.0677
RRIRARPPRLPRPRPRPAIAPRP	0.547
RRIRMRPPRLPRPRPRPGQLPRP	0.0406
RRIRNRPPRLPRPRPRPIMQPRP	-0.0584
RRIRPRPPRLPRPRPRPEGKPRP	-0.124
RRIRTRPPRLPRPRPRPCAIPRP	0.00368

Sequence	shrunken log2 fold change
RRIRMRPPRLPRPRPRPGLAPRP	1.51
RRIRWRPPRLPRPRPRPSVEPRP	0.172
RRIRHRPPRLPRPRPRPCPGPRP	-0.541
RRIRNRPPRLPRPRPRPLKYPRP	-0.0547
RRIRNRPPRLPRPRPRPVKIPRP	0.0539
RRIRCRPPRLPRPRPRPLIKPRP	-0.311
RRIRGRPPRLPRPRPRPFADPRP	2.03
RRIRCRPPRLPRPRPRPYIYPRP	-0.945
RRIRYRPPRLPRPRPRPNHQPRP	-0.573
RRIRWRPPRLPRPRPRPNGCPRP	0.0739
RRIRHRPPRLPRPRPRPNYIPRP	-1.35
RRIRIRPPRLPRPRPRPEYTPRP	0.0624
RRIRQRPPRLPRPRPRPCSQPRP	-0.018
RRIRIRPPRLPRPRPRPYNDPRP	-0.313
RRIRTRPPRLPRPRPRPFVHPRP	-0.138
RRIRGRPPRLPRPRPRPLCIPRP	0.366
RRIRHRPPRLPRPRPRPYGQPRP	-0.00191
RRIRLRPPRLPRPRPRPATFPRP	-0.0149
RRIRYRPPRLPRPRPRPLDQPRP	-0.169
RRIRKRPPRLPRPRPRPPRWPRP	1.07
RRIRLRPPRLPRPRPRPNAHPRP	-0.154
RRIRHRPPRLPRPRPRPKFKPRP	0.0646
RRIRRRPPRLPRPRPRPKQSPRP	0.143
RRIRIRPPRLPRPRPRPDGLPRP	0.0731
RRIRTRPPRLPRPRPRPHEFPRP	-0.175

Sequence	shrunken log2 fold change
RRIRARPPRLPRPRPRPYCQPRP	-0.138
RRIRSRPPRLPRPRPRPVPDPRP	-0.0298
RRIRSRPPRLPRPRPRPLKIPRP	-0.309
RRIRLRPPRLPRPRPRPVKFPRP	-0.316
RRIRCRPPRLPRPRPRPWMSPRP	-0.824
RRIRFRPPRLPRPRPRPRDNPRP	-0.173
RRIRNRPPRLPRPRPRPRTSPRP	-0.0838
RRIRVRPPRLPRPRPRPANDPRP	0.0219
RRIRWRPPRLPRPRPRPLPKPRP	0.12
RRIRERPPRLPRPRPRPIVKPRP	-0.0406
RRIRTRPPRLPRPRPRPSTYPRP	-0.4
RRIRERPPRLPRPRPRPDTMPRP	-0.336
RRIRNRPPRLPRPRPRPIVSPRP	-0.00673
RRIRLRPPRLPRPRPRPARGPRP	0.565
RRIRGRPPRLPRPRPRPSDDPRP	0.108
RRIRPRPPRLPRPRPRPQFHPRP	-0.3
RRIRTRPPRLPRPRPRPNLCPRP	0.108
RRIRLRPPRLPRPRPRPPLIPRP	-0.258
RRIRKRPPRLPRPRPRPGGPPRP	0.453
RRIRARPPRLPRPRPRPDFRPRP	0.0149
RRIRVRPPRLPRPRPRPTKRPRP	0.331
RRIRYRPPRLPRPRPRPRLAPRP	0.299
RRIRSRPPRLPRPRPRPMLQPRP	-0.0416
RRIRWRPPRLPRPRPRPAVCPRP	0.803
RRIRCRPPRLPRPRPRPWREPRP	0.13

Sequence	shrunken log2 fold change
RRIRNRPPRLPRPRPRPVLIPRP	-0.27
RRIRRRPPRLPRPRPRPIMGPRP	-0.267
RRIRKRPPRLPRPRPRPCIDPRP	-0.0418
RRIRMRPPRLPRPRPRPKDSPRP	1.66
RRIRFRPPRLPRPRPRPSKPPRP	-0.0327
RRIRERPPRLPRPRPRPVPKPRP	0.358
RRIRERPPRLPRPRPRPHFSPRP	0.061
RRIRMRPPRLPRPRPRPVFHPRP	-0.341
RRIRKRPPRLPRPRPRPGMAPRP	0.315
RRIRRRPPRLPRPRPRPGSSPRP	0.103
RRIRGRPPRLPRPRPRPPWPPRP	0.871
RRIRRRPPRLPRPRPRPYITPRP	-0.523
RRIRLRPPRLPRPRPRPDRNPRP	0.0573
RRIRERPPRLPRPRPRPETCPRP	-0.127
RRIRIRPPRLPRPRPRPLCEPRP	-0.332
RRIRMRPPRLPRPRPRPAFGPRP	1.05
RRIRPRPPRLPRPRPRPIKRPRP	-0.125
RRIRSRPPRLPRPRPRPGTWPRP	0.358
RRIRHRPPRLPRPRPRPIWMPRP	-0.0859
RRIRYRPPRLPRPRPRPVWFPRP	-0.129
RRIRQRPPRLPRPRPRPPREPRP	0.655
RRIRRRPPRLPRPRPRPDPGPRP	-0.0599
RRIRWRPPRLPRPRPRPHEPPRP	0.0371
RRIRYRPPRLPRPRPRPCRHPRP	-0.394
RRIRDRPPRLPRPRPRPPWAPRP	0.311

Sequence	shrunken log2 fold change
RRIRQRPPRLPRPRPRPQKKPRP	-0.214
RRIRCRPPRLPRPRPRPWMKPRP	-0.0192
RRIRCRPPRLPRPRPRPPHRPRP	0.854
RRIRSRPPRLPRPRPRPVAWPRP	0.0469
RRIRLRPPRLPRPRPRPSKDPRP	-0.364
RRIRARPPRLPRPRPRPAYMPRP	-0.64
RRIRKRPPRLPRPRPRPSTFPRP	-0.00863
RRIRHRPPRLPRPRPRPARPPRP	0.502
RRIRNRPPRLPRPRPRPLKNPRP	-0.234
RRIRQRPPRLPRPRPRPSLDPRP	-0.222
RRIRNRPPRLPRPRPRPKSWPRP	0.432
RRIRERPPRLPRPRPRPQFCPRP	-0.0627
RRIRQRPPRLPRPRPRPGMGPRP	0.33
RRIRVRPPRLPRPRPRPWVHPRP	-0.306
RRIRQRPPRLPRPRPRPAYVPRP	-0.0582
RRIRHRPPRLPRPRPRPFGDPRP	-0.257
RRIRRRPPRLPRPRPRPSLMPRP	-0.0626
RRIRGRPPRLPRPRPRPVLNPRP	0.469
RRIRARPPRLPRPRPRPAENPRP	0.865
RRIRYRPPRLPRPRPRPRPCPRP	-0.117
RRIRPRPPRLPRPRPRPESYPRP	-0.00116
RRIRLRPPRLPRPRPRPWVSPRP	0.442
RRIRMRPPRLPRPRPRPLNDPRP	0.106
RRIRCRPPRLPRPRPRPQNQPRP	-0.00207
RRIRLRPPRLPRPRPRPFADPRP	0.0979
